Measured values taken from patent publication US12428627B2, “Mutant p-hydroxyphenylpyruvate dioxygenase, and coding nucleic acid and use thereof” (Qingdao Kingagroot Chemical Compound Co., Ltd., priority 2018, dated 2025).

Legend:
OsHPPD = assay: HPPD enzyme activity assay: Km, Kcat and Kcat/Km of OsHPPDs; type: biochemical, Oryza sativa
Method: The rice OsHPPD protein and homogentisate 1,2-dioxygenase (HGD) were obtained by heterologously expressed in E. coli wherein the gene was inserted into the pET 15b expression vector and expressed in the BL21 (DE3) expression strain, and purified by the Ni-NTA resin. • (1) The HPPD open reading frame (ORF) of the positive clone was cloned into the pET-15b vector to form a 6His-HPPD expression vector, and transformed into the BL21 (DE3) cell. The expression strain was inoculated in 10 mL of 2×YT culture medium, and cultivated overnight on a shaker at 37° C. and 200 rpm. The 10 mL of the culture was inoculated in 1 L of 2×YT culture medium and cultivated until the OD600 reached 0.6-0.8, cooled to a temperature of 16° C., and subjected to induced-expression with 0.2 mM IPTG (isopropyl thiogalactoside) overnight. The strains were collected by centrifugation at 2800×g. • (2) The collected strains were re-suspended with the buffer A (50 mM Tris pH 8.0, 500 mM NaCl, 20 mM imidazole), to which PMSF (phenylmethanesulfonyl fluoride) at the final concentration of 1 mM and 250 μL of a protease inhibitor cocktail (i.e., a mixture of multiple protease inhibitors), and mixed. The cells were broken by ultrasound in ice-bath (40% total power, work for 3 seconds/6 seconds interval, 2×30 minutes (Ningbo Scientz Biotechnology Co., Ltd., Ningbo, China)), and centrifuged at 12000 rpm at 4° C. for 30 minutes; and the supernatant was filtered with a 0.22 μm filter membrane. • (3) Purification with the Ni-NTA column: the supernatant was in contact with the Ni-NTA resin, then rinsed with a buffer A containing 50 mM imidazole to remove the impurities, and finally, eluted with an elution buffer containing 400 mM imidazole. • (4) The approximate purity of the protein of interest was analyzed by SDS-PAGE. The eluates containing of the protein of interest were combined and concentrated by an ultrafiltration device (10 kDa molecular weight cut-off, Amicon Ultra). The solution was replaced with a solution containing 20 mM Tris-HCl and having a pH of 7.5 for at least 3 times to desalt. The total protein concentration was determined by the BCA method.
(§1) • 1. The activity of a HPPD enzyme was determined by detecting the conversion of 4-hydroxyphenylpyruvate (4-HPP) to homogentisic acid (HGA) catalyzed by the HPPD enzyme and the conversion of HGA to maleylacetoacetate (MAA) catalyzed by homogentisate dioxygenase. […] 6 μl of 4-hydroxyphenylpyruvate (4-HPP) having a concentration that was as 50 times as the final concentration of the substrate were added to an ELSA plate, and then 294 μL of hydroxyethylpiperazine ethanesulfonic acid (HEPES) with a final concentration of 25 mM and pH of 7, 2 mM of Vitamin C, 10 mM FeSO4, 50 nM homogentisate dioxygenase and 5 to 240 nM HPPD enzyme were added thereto at one time. The final concentration of reaction substrate 4-HPP usually ranged from 1 to 100 μM. • 3. The absorbance changes of the reaction wells at 318 nm were continuously monitored by a UV ELISA detector (ReadMax 1900 photoabsorption type full-wavelength microplate reader) (Shanghai). • 4. Determination of Km, Kcat and Kcat/Km of OsHPPDs
Vmax is the maximum catalytic reaction rate achievable by enzymatic catalysis. The Michaelis constant Km is the concentration of a substrate required when the enzyme catalyzed the reaction to achieve half of the maximum rate (Vmax). The Km value is a constant and independent of the enzyme concentration, and altered as substrate type, reaction temperature, pH, and ionic strength changed. […] is a catalytic constant of an enzyme and referred to the number of substrate molecules that could be catalyzed by an enzyme molecule or enzyme active center per second. KCat/Km represents the catalytic efficiency of enzyme. It could be seen from the data in the table that the catalytic efficiency of most HPPD mutants was enhanced.

OsHPPD proteins = assay: Inhibitory activity (IC50) of the herbicide 101 and huanbifucaotong against OsHPPD proteins; type: biochemical, Oryza sativa; conditions: herbicides 101 and huanbifucaotong
Method: as §1
• 5. Determination of inhibitory activity (IC50) of the herbicide 101 and huanbifucaotong against OsHPPD proteins
Due to the unique properties of each of 101 and huangbifucaotong, the degree of the increased IC50 value is not completely consistent for the two HPPD herbicides.

B1: H141R/N338D/G342D/P386T: mutant rice HPPD (protein)
chain: MPPTPTPTATTGAVSAAAAAGENAGFRLVGHRRFVRANPRSDRFQALAFHHVELWCADAASAAGRFAFALGAPLAARSDLSTGNSAHASLLLRSASVAFLFTAPYGGDHGVGADAATTASIPSFSPGAARRFAADHGLAVRAVALRVADAADAFRASVAAGARPAFQPADLGGGFGLAEVELYGDVVLRFVSHPDGADAPFLPGFEGVSNPGAVDYGLRRFDHVVGNVPELAPVAAYISGFTGFHEFAEFTAEDVGTAESGLNSVVLANNAETVLLPLNEPVHGTKRRSQIQTYLDHHGGPGVQHIALASDDVLGTLREMRARSAMGGFEFLAPPPPDYYDDVRRRAGDVLSEEQINECQELGVLVDRDDQGVLLQIFTKPVGDRTTFFLEMIQRIGCMEKDESGQEYQKGGCGGFGKGNFSELFKSIEEYEKSLEAKQAPTVQGS
- affinity to substrate (Km) (OsHPPD): not reduced
- Km (OsHPPD; substrate 4-HPP): 9.7 µM
- resistance in in vitro enzyme activity experiments (OsHPPD proteins): relatively high resistance
